Measurements taken from patent publication US10562935B2, “Stapled peptides and uses thereof” (London Health Sciences Centre Research Inc., priority 2015, dated 2020).

Assay: Circular dichroism (CD) spectroscopy of HABD2 peptides in Milli-Q water (Example 1)
Type: physicochemical
From the text: In addition, a large mean residue ellipticity indicates greater α-helical character. […] This was predicted to be the case, as there is a lack of contributing residues that might form a hydrophobic core, thereby helping to stabilize the secondary structure of the linear peptide. For this reason, bridges were introduced into the peptides. […] The differences in α-helicity induced by the bridges placed at different points within each peptide may be due to the differences in their primary sequences. Specifically, two amino acids (at the i and i+4 position) have to be replaced in order to form the lactam bridge. In compound 133, leucine was replaced at both the i and i+4 position; while in compound 136, glutamine was replaced at the i position and aspartic acid was replaced at i+4. Leucine and glutamine are proposed to be helix-stabilizing residues.
A larger portion of the RHAMM protein was used as the reference for α-helical character of the truncated peptides. 7 kDa RHAMM (SEQ ID NO: 1) is a mini protein that is composed of 62 amino acids, which was derived from the C-terminus of the full-length RHAMM sequence. It contains both HABDs, and is predicted to have almost complete α-helix shape, similar to that of native full-length RHAMM.
A peptide's α-helicity can be quantified using equations 1-3: fH=[([θ]obs222−[θ]c)/([θ]max222−[θ]c)] (Equation 1) [θ]c=2220+53T (Equation 2) [θ]max222=(−44000+250T)(1−k/N) (Equation 3) where fH is the ratio of the average number of helical hydrogen bonds divided by the total number of hydrogen bonds that can be found in a peptide, T is the temperature in degrees Celsius, N is the number of residues in the peptide and k is a constant of ellipticity when 100% of the structure is α-helical (3 for carboxyamidated peptides).
Milli-Q water was chosen as the solvent in which all peptides would be dissolved for CD spectroscopy, as it is a UV invisible solvent, which is a requirement of the analytical technique, and it represents RHAMM's natural environment in the body. Luo and Baldwin [18] stated that when peptides are taken out of their native protein sequence, they usually show little to no helical formation in water alone. For this reason, TFE/H2O solutions are commonly used in studies to observe the α-helix characteristics, and may improve the helical nature of the peptides observed here. However, a helix-stabilizing solvent, such as TFE, would not be as contextually relevant, as there are no solvent stabilizing effects in the body. Thus use of TFE would tend to produce skewed results and not be representative of the peptide's natural behavior.

## Ac-VSKLRSQLVKRKQN-NH2 [Compound 132]
0.5 mM in Milli-Q water
  [θ]222/[θ]208 ratio of ellipticities: 0.27
0.5 mM in Milli-Q water, equations 1-3
  fH fraction helicity: 0.13
Milli-Q water
  α-helical character by CD (in words): minimal α-helical character
λ = 192 nm, 0.5 mM in Milli-Q water
  Molar ellipticity [θ]192: −433.48 deg cm^2 dmol^−1 residue^−1
λ = 208 nm, 0.5 mM in Milli-Q water
  Molar ellipticity [θ]208: −4944.38 deg cm^2 dmol^−1 residue^−1
λ = 222 nm, 0.5 mM in Milli-Q water
  Molar ellipticity [θ]222: −1339.76 deg cm^2 dmol^−1 residue^−1
